Source: the supplement of paper PMC12764529
± gives the half width of the 95% confidence interval.

Key:
[1] = folding stability dG unfold from chymotrypsin proteolysis; higher = more stable
Outline: (§1)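 How resistant each design was to proteolysis was captured as K50, inferred by Bayesian fitting of sequencing counts. Unfolding free energy was then derived relative to a sequence-predicted unfolded-state K50 and a shared folded-state K50, per protease or combined. Digestion used trypsin and chymotrypsin at 11 threefold-diluted concentrations plus a no-protease condition, on mini-proteins under 80 residues without cysteine in a PA-tagged cDNA display construct. Designs were kept only when AlphaFold2 dimer inter-PAE was above 15.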

[2] = folding stability dG unfold from trypsin proteolysis; higher = more stable
Outline: as §1

[3] = folding stability dG unfold (combined trypsin and chymotrypsin); higher = more stable
Outline: as §1

Sequence	folding stability dG unfold [1]	folding stability dG unfold [2]	folding stability dG unfold [3]
SAGMITLPTRGPEELIERLRAIAEELGLSEEDIEQFLRDLAEHATIEQDGDLLLITFQPPVPALPGEPESAG [r5_717_TrMRF]	1.91 ± 0.037 kcal/mol	1.23 ± 0.071 kcal/mol	1.74 ± 0.17 kcal/mol
SAGMPDVPPVPRTFRLEIEIEVPAEDPELARELAEEIREEIRRLGAVRTEVEIDPEPGRVRVRVEFVEGSAG [r5_512_TrMRF]	1.56 ± 0.051 kcal/mol	1.36 ± 0.018 kcal/mol	1.48 ± 0.043 kcal/mol
SAGGSAGGSAMIETTVSFDPSTGTVTTTTTYTDPNGGYTKSSTTVTPVPTPAPPPPAAPNRVSAGGSAGGSA [r18_361_JUSTAS]	0.582 ± 0.067 kcal/mol	0.409 ± 0.029 kcal/mol	0.551 ± 0.094 kcal/mol
SAGGSAIKLPSGVKIEFKKTEDGKYIVRVTLPDGKPIELEFEGDPEGPNNITPEEINDAILEKIKSSAGGSA [r15_780_TrMRF]	3.23 ± 0.056 kcal/mol	2.67 ± 0.11 kcal/mol	3.06 ± 0.081 kcal/mol
SAGMTIEIEIPASTSAEEAVERVEAIVEEVRKAGKKFELTIKTSDPALAAAVRAALEAAGVPVTVEVDSAGG [r19_268_JUSTAS]	2.48 ± 0.033 kcal/mol	4.07 ± 0.12 kcal/mol	3.28 ± 0.066 kcal/mol
SPLTAEQIKKLLRELFPNAKIVSIEYDKENKTVTITFEDGLKIEVTVTEDGRVIIRITLPGKEITIEIEVSA [r9_304_TrROS_Hall]	4.03 ± 0.23 kcal/mol	4.22 ± 0.3 kcal/mol	4.44 ± 0.22 kcal/mol
SAGGSAGGSAGRAEIPITFNGKKVEVEVEPDPDNGHPIITIKFGNKPVVINPDGQIRPFPSAGGSAGGSAGG [r11_732_TrROS]	-0.0926 ± 0.47 kcal/mol	-0.0507 ± 0.11 kcal/mol	0.0302 ± 0.19 kcal/mol
SAGGSAGGMPPVSLPETPVTITDPATGKPRLVTVLAAAPDGTLTVRFPDGSEVTVAGEPLLELESAGGSAGG [r6_435_JUSTAS]	1.05 ± 0.019 kcal/mol	0.446 ± 0.042 kcal/mol	0.878 ± 0.051 kcal/mol
SAGIVIPINNPEQAEELAKEFAPEYGYEVEIERVPPGEPLEELPPNDIIVHDPDSGWFYKIKIKRPDEKSAG [r5_173_TrROS]	0.134 ± 0.43 kcal/mol	0.38 ± 0.1 kcal/mol	0.29 ± 0.24 kcal/mol
SAGGSAGGSAGSSMTSTVTEVSTLSNGGTVVTTTTTSYYPSTGTTTTSTTTTTFTDGKAVSAGGSAGGSAGG [r11_337_JUSTAS]	0.932 ± 0.027 kcal/mol	1.08 ± 0.057 kcal/mol	1.05 ± 0.03 kcal/mol
SAGGSAGGMKITKIESVEPNPENGMVSLEMKIENGASILIHYNPDNGKVTIMVFKPNEIEPIELSAGGSAGG [r6_796_TrROS]	1.91 ± 0.072 kcal/mol	1.26 ± 0.092 kcal/mol	1.76 ± 0.089 kcal/mol
SAGGSMTTPPTGEVQVFIDRKTDKWTIRIVDPNAPPTTEEVESEEEAEKVIAELEAKGYKVDTVEPLPSAGG [r13_727_JUSTAS]	1.14 ± 0.5 kcal/mol	0.658 ± 0.16 kcal/mol	0.913 ± 0.29 kcal/mol
SAGGMITATFTIDLGAGPVTFTFDITDIETALEKIKEYLKSQGIDAKLVSVSVDPANGTVPMKLSVPPSAGG [r13_567_JUSTAS]	1.46 ± 0.14 kcal/mol	1.58 ± 0.043 kcal/mol	1.56 ± 0.12 kcal/mol
SAEVRVEIVEVDEERGVIRIEITVPEDLPEEEILEELARRLEELARERGYEVRIERREDGTYRIEIRFPSAG [r14_865_TrROS_Hall]	4.26 ± 0.071 kcal/mol	4.18 ± 0.16 kcal/mol	4.25 ± 0.11 kcal/mol
SGLKPNEVKKFTFSFPVTDPVTGKEVTATVELYVSAGNPFVVVKLTVTPPDGKTETKTFVVPPGATLTIDSA [r9_88_TrMRF]	3.598 ± 0.028 kcal/mol	1.73 ± 0.054 kcal/mol	3.2 ± 0.17 kcal/mol
SAGGSAGGSAGMRTITIPIPDGDPENIEEQARELADAFPDLKGKKVNIEYHKDGWITITVSAGGSAGGSAGG [r17_324_TrROS]	1.19 ± 0.1 kcal/mol	0.694 ± 0.15 kcal/mol	1.15 ± 0.18 kcal/mol
SAGGSPNYKINVEVEEYEPNPDNGKPYYRARIKIEWYNPENGREQTREIDFWMSPDKAEKFLKDILSAGGSA [r2_357_TrROS]	2.56 ± 0.13 kcal/mol	1.89 ± 0.059 kcal/mol	2.22 ± 0.17 kcal/mol
SSSPSGLSVTSSTVTKVETDPGPGNVTTVTVTTLNNSVLIIPLPGKPLVIPTNTTVETTYTVPPDDPSPASA [r9_531_JUSTAS]	0.87 ± 0.11 kcal/mol	1.31 ± 0.073 kcal/mol	1.15 ± 0.074 kcal/mol
SAGGSAGGSMTITYDPVSNTYTVNLSLEGGTKTYTVPSLEALKATLKAEGLPWGPPPITTVSASAGGSAGGS [r12_834_JUSTAS]	5.05 ± 0.063 kcal/mol	3.43 ± 0.08 kcal/mol	4.96 ± 0.079 kcal/mol
SAGGSAGGSKKKTVEEILKELKKKKNKIIKIKYKDGSTYYINIKTGKIIKLKNIKNVKIEILPSAGGSAGGS [r20_44_TrROS_Hall]	4.44 ± 0.1 kcal/mol	2.73 ± 0.14 kcal/mol	3.55 ± 0.32 kcal/mol
SAGGSSMQTTVFILPGPEVPVEEVKAKIAKELGLDFETVTFIPAPSREEAEALAAALGVDGIIVEVDSAGGS [r8_245_JUSTAS]	2.662 ± 0.013 kcal/mol	2.43 ± 0.053 kcal/mol	2.58 ± 0.052 kcal/mol

Sequence	folding stability dG unfold [1]	folding stability dG unfold [2]	folding stability dG unfold [3]
SMKKTIIIKVKKEDMTPEEIAKKLAELGYEVEIVDVEYDEETEEVYITVEIYDENGELIEKIEIKLPRKDSA [r9_879_TrROS_Hall]	0.956 ± 0.17 kcal/mol	0.825 ± 0.16 kcal/mol	0.916 ± 0.42 kcal/mol
SAGGSFDPVEITTLEDGTIKILAKDPNTNKLFITTLKAKSIKTSSLGNGKTITTIPHEKVEESEELPSAGGS [r16_615_JUSTAS]	-0.0729 ± 0.51 kcal/mol	-0.795 ± 0.66 kcal/mol	-0.554 ± 0.67 kcal/mol
SEKLTEEEVEKLAEELAKELEEETGKKVTVEVEVEKVEVEKDGEKEEVEVVRIKITVDPETGEVTIEVEPSA [r9_9_TrROS_Hall]	1.43 ± 0.2 kcal/mol	1.49 ± 0.11 kcal/mol	1.56 ± 0.45 kcal/mol
SAGGSAGGMIYADNPEEFKKVVKELLKKHPKNKPVFAVLTGSNSKYVIYLSGDKLEKVLAFPVPSAGGSAGG [r6_288_TrMRF]	1.62 ± 0.051 kcal/mol	0.961 ± 0.028 kcal/mol	1.38 ± 0.052 kcal/mol
SAGGSAGGSAGTVEEIAKYFAGEFPNYKVNIDVEWEGGKITSVDIEWEVVPPPPPESPGKSAGGSAGGSAGG [r11_197_TrROS]	0.309 ± 0.18 kcal/mol	1.16 ± 0.12 kcal/mol	0.834 ± 0.22 kcal/mol
SAGGMTIITTTFTLKLPSNGKVVTVTKTYNLSPEEGKKEAEKIAKEIAEELKEPTEILEIKITYYPESAGGS [r16_140_JUSTAS]	2 ± 0.085 kcal/mol	1.26 ± 0.092 kcal/mol	1.7 ± 0.27 kcal/mol
SAGMLNIPVDTPEKLLEIVKKLPGPVVVRSTSGTTVTVASLEELKEIAERGVPVELLLPEELPAEERAASAG [r5_677_JUSTAS]	0.872 ± 0.041 kcal/mol	0.0824 ± 0.051 kcal/mol	0.576 ± 0.067 kcal/mol
SMAKVTGYPDIFLVTIYKDGEEKTIPVNFEELVELLKKGVKKVEFTTDNPEFAEKFYKLVKSLGVPVNLKSA [r9_810_TrMRF]	2.7 ± 0.04 kcal/mol	1.44 ± 0.016 kcal/mol	2.33 ± 0.044 kcal/mol
SMSPEARALARELAERLRELFPGAEIEIRVEVEVNEDGEVTIRVEIRVRPAPPPEVRVVRDEDGRERRLRSA [r9_82_TrROS_Hall]	2.04 ± 0.04 kcal/mol	1.09 ± 0.1 kcal/mol	1.8 ± 0.074 kcal/mol
SAGGSAGGSAGGDKDDKPPVRTVTVMHMFFDENGWLVKFDITFTANGQIEIDWGPVPLPSAGGSAGGSAGGS [r10_682_TrROS]	3.8 ± 0.42 kcal/mol	2.96 ± 0.3 kcal/mol	3.52 ± 0.5 kcal/mol
SAGKPEWKLVETIEVTIEVPPGVTVEEIEKKLLEALKEKGIKEVKIEVTYDKENKTITVRVEVLVKKEKSAG [r5_924_TrROS_Hall]	1.92 ± 0.11 kcal/mol	1.27 ± 0.13 kcal/mol	1.66 ± 0.26 kcal/mol
SAGKITITVEKNEDGELTVTIRIEKDGKPIEEITFESEEEALEAAKKLAEELKKKYPDLKIEVEIVPRPSAG [r5_383_TrROS_Hall]	2.65 ± 0.22 kcal/mol	3.47 ± 0.27 kcal/mol	3.53 ± 0.64 kcal/mol
SAGGMAVPVKVRDPVNGNWKTLDNIESIDEVVEVDPTDGSRSYFVKLKGSGKWYVVDDPEAVEAAKGSAGGS [r8_206_TrMRF]	1.08 ± 0.14 kcal/mol	1.17 ± 0.064 kcal/mol	1.12 ± 0.13 kcal/mol
SAGGSAGGSAGKDIAKNIPPGAKILPIEPQPRGGGLYVKIEIEMPDPNGKKEKVTFTFPISAGGSAGGSAGG [r17_140_TrROS]	0.589 ± 0.26 kcal/mol	-0.467 ± 0.14 kcal/mol	0.366 ± 0.26 kcal/mol
SAGGSAGGSAGMKIRIELPGMSPEQIEELAKLIPNVRVSITYDKETNRVYVEIEVSEEDLSAGGSAGGSAGG [r11_862_TrROS_Hall]	3.21 ± 0.052 kcal/mol	2.38 ± 0.058 kcal/mol	2.88 ± 0.051 kcal/mol
SAGGSEEEIKKKIEEIAKKRGTKIKSITIKKLPDGSLLATVTLEDNPNTTIEFKVEKNKVEITKINKSAGGS [r8_432_JUSTAS]	2.93 ± 0.051 kcal/mol	1.73 ± 0.068 kcal/mol	2.61 ± 0.066 kcal/mol
SAGGSAGGSAGERLTADELRKLAEELGLPAEITVERKEDGTYTVTITVDGKTYKIEIKLDSAGGSAGGSAGG [r11_410_TrROS_Hall]	3.44 ± 0.1 kcal/mol	2.38 ± 0.096 kcal/mol	3.16 ± 0.15 kcal/mol
SAGGKGKAVPFEIEFEAPGGKKVKAKITRIDLPDKPIYRVEVEVDGKKITYTATEDEAANLTFTPGGSAGGS [r8_257_TrMRF]	2.21 ± 0.035 kcal/mol	1.48 ± 0.058 kcal/mol	1.92 ± 0.16 kcal/mol
SAGGIKIEIMFLMPLKDVRSIIDEIAKMPGIKITDVEVDIIPFENGTVMFRVTFEIEIYDPENGEPISAGGS [r8_374_TrROS]	4.78 ± 0.18 kcal/mol	3.95 ± 0.21 kcal/mol	4.27 ± 0.36 kcal/mol
SAGGSPLVLTSEVEKKFENSPDKTVEKYKIKVTVYDPKTGKKLKEIELEKTVEKGGNEKIEEPIILSAGGSA [r2_271_JUSTAS]	0.487 ± 0.21 kcal/mol	0.146 ± 0.084 kcal/mol	0.419 ± 0.16 kcal/mol
SADHKFEIDINVFEHDGWRYIMIPVKYDDPQDVDEAAEKILREFGIPPNFNVNVMRSPNEVWINIRIPYSAG [r14_804_TrROS]	2.85 ± 0.077 kcal/mol	2.08 ± 0.06 kcal/mol	2.53 ± 0.15 kcal/mol
